Source: article PMC10397247
Read-outs that look alike come from different tables or passages of the source.

Experiments:
4H967-AA = target: T1, 4H967-AA; assay: two-hybrid library CCmax; conditions: mean of both orientations;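 note: natural log of median RNA to DNA barcode read ratio; higher means stronger binding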
T1 chain: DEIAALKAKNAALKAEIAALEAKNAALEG

4H797-AA = target: T2, 4H797-AA; assay: two-hybrid library CCmax;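 note: natural log of median RNA to DNA barcode read ratio; higher means stronger binding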
T2 chain: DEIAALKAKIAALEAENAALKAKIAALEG

4H909-AA = target: T3, 4H909-AA; assay: two-hybrid library CCmax; conditions: mean of both orientations;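 note: natural log of median RNA to DNA barcode read ratio; higher means stronger binding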
T3 chain: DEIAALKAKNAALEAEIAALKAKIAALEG

4H883-AA = target: T4, 4H883-AA; assay: two-hybrid library CCmax;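 note: natural log of median RNA to DNA barcode read ratio; higher means stronger binding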
T4 chain: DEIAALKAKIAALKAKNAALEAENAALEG

4H953-AA = target: T5, 4H953-AA; assay: two-hybrid library CCmax; conditions: mean of both orientations;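 note: natural log of median RNA to DNA barcode read ratio; higher means stronger binding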
T5 chain: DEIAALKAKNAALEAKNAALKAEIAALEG

4H930-AA = target: T6, 4H930-AA; assay: two-hybrid library CCmax; conditions: mean of both orientations;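 note: natural log of median RNA to DNA barcode read ratio; higher means stronger binding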
T6 chain: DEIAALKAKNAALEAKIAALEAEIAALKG

4H891-AA = target: T7, 4H891-AA; assay: two-hybrid library CCmax; conditions: mean of both orientations
T7 chain: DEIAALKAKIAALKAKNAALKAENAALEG

4H918-AA = target: T8, 4H918-AA; assay: two-hybrid library CCmax; conditions: mean of both orientations
T8 chain: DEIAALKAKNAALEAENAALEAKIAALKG

4H850-AA = target: T9, 4H850-AA; assay: two-hybrid library CCmax; conditions: mean of both orientations
T9 chain: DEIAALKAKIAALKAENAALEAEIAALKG

4H94-AA = target: T10, 4H94-AA; assay: two-hybrid library CCmax; conditions: mean of both orientations
T10 chain: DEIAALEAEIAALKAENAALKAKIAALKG

4H780-AA = target: T11, 4H780-AA; assay: two-hybrid library CCmax; conditions: mean of both orientations
T11 chain: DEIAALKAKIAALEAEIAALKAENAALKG

4H993-AA = target: T12, 4H993-AA; assay: two-hybrid library CCmax; conditions: mean of both orientations
T12 chain: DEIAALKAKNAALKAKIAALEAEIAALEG

4H881-AA = target: T13, 4H881-AA; assay: two-hybrid library CCmax; conditions: mean of both orientations
T13 chain: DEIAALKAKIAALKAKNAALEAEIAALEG

4H794-AA = target: T14, 4H794-AA; assay: two-hybrid library CCmax; conditions: mean of both orientations
T14 chain: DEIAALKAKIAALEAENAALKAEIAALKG

4H906-AA = target: T15, 4H906-AA; assay: two-hybrid library CCmax; conditions: mean of both orientations
T15 chain: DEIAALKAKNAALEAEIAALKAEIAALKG

4H717-AA = target: T16, 4H717-AA; assay: two-hybrid library CCmax
T16 chain: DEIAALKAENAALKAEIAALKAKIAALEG

4H953-bA = target: T17, 4H953-bA; assay: two-hybrid library CCNG1
T17 chain: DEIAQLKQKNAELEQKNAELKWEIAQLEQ

4H967-bA = target: T18, 4H967-bA; assay: two-hybrid library CCNG1
T18 chain: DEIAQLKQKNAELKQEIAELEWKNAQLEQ

O7-bA = target: T19, O7-bA; assay: two-hybrid library CCNG1
T19 chain: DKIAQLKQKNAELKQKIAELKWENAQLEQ

4H968-bA = target: T20, 4H968-bA; assay: two-hybrid library CCNG1
T20 chain: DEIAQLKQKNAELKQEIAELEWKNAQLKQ

O8-bA = target: T21, O8-bA; assay: two-hybrid library CCNG1
T21 chain: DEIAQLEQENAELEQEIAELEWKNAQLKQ

O9-bA = target: T22, O9-bA; assay: two-hybrid library CCNG1
T22 chain: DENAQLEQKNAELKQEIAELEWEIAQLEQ

DEIAALKAKIAALEAENAALKAKIAALEG [4H797-AA]
interaction score (4H967-AA): -1.81
interaction score (4H797-AA): 1.76
interaction score (4H909-AA): -0.899
interaction score (4H883-AA; mean of both orientations): -1.4
interaction score (4H953-AA): -0.955
interaction score (4H930-AA): -1.72
interaction score (4H891-AA): -1.35
interaction score (4H918-AA): -0.389
interaction score (4H850-AA): 1.16
interaction score (4H94-AA): 0.948

DEIAALKAENAALKAEIAALKAKIAALEG [4H717-AA]
interaction score (4H967-AA): -0.559
interaction score (4H797-AA): -1.4
interaction score (4H780-AA): -1.38
interaction score (4H993-AA): 0.0522
interaction score (4H881-AA): -1.15
interaction score (4H794-AA): -1.37
interaction score (4H883-AA; mean of both orientations): -1.82
interaction score (4H906-AA): -1.19
interaction score (4H717-AA): 1.89
interaction score (4H953-AA): -1.87
interaction score (4H918-AA): -1.34

DEIAALKAKIAALKAKNAALEAENAALEG [4H883-AA]
interaction score (4H967-AA): -2.15
interaction score (4H883-AA): -1.73
interaction score (4H953-AA): -2.05
interaction score (4H918-AA): -1.46

DEIAQLKQKNAELEQKNAELKWEIAQLEQ [4H953-bA]
interaction score (4H953-bA): -0.648
interaction score (4H967-bA): -1.11
interaction score (O7-bA): -0.716
interaction score (4H968-bA): -1.33

DENAQLEQEIAELEQKNAELKWEIAQLEQ [O5-bA]
interaction score (O8-bA): -0.893
interaction score (O9-bA): -0.954
interaction score (O7-bA): -0.303
